The source of these data is US20220195063A1 (BYONDIS B V, published 2022).

To fix the notation:
B1: anti-SIRPα antibody 8 (antibody, human IgG1, kappa, L234A L235A, V domains shown)
VH: QSLEESGGRLVTPGTPLTLTCTASGVDLSNYAMGWVRQAPGKGLEWIGIIYAGGSTSYATWAKGRFTISKTSTTMDLKMTSPTTEDTATYFCARHRSDGYDYFHLWGPGTLVTVSL
VL: AIDMTQTPASVSEPVGGTVTIKCQASQSISSWLAWYQQKPGQRPKLLIYDASKLASGVPSRFSGSGSGTEFTLTISGVQSDDAAAYYCQQGYAVSYVENIFGGGTEVVVKR
notes: Rabbit variable regions on human IgG1 LALA / kappa
B2: 12C4huIgG1LALA (antibody, V domains shown)
VH: EVKLEESGGGLMQPGGSMKLSCVASGFTFSNYWMNWVRQSPEKGLEWVAEIRLKSNNYATHYAESVKGRFTISRDDSKSSVYLQMNNLRAEDTGIYYCIRDYDYDAYFDYWGQGTTLTVSS
VL: DIVLTQSPASLAVSLGQRATISCRASKSVSTSGYNYMYWYQQKPGQPPKLLIYLASNLESGVPARFSGSGSGTDFTLNIHPVEEEDAATYYCQHSGELPYTFGGGTKLEIKR
notes: HAVT20 leader left out; also called 12C4LALA; huIgG112C4LALA
B3: anti-SIRPα antibody 2 (antibody, human IgG1, kappa, L234A L235A, V domains shown)
VH: QSVEESGGRLVTPGTPLTLTCTVSGFSLSNYAMHWVRQAPGKGLEWIGIIYTGGATSYATWAKGQFTISKTSTTVDLKITSPTTEDTATYFCARGDRDGYAYFNIWGPGTLVTVSL
VL: QIVMTQTPFSVSAVVGGTVTIKCQASHNIGSWLAWYQQKPGQRPKLLIYDASTLASGVSSRFKGSGSGTEFTLTISGVESADAATYYCQQGYGISYVHNVFGGGTEVVVKR
notes: as for B1
B4: anti-SIRPα antibody 5 (antibody, human IgG1, kappa, L234A L235A, V domains shown)
VH: QSVEESGGRLVTPGTPLTLTCTVSGFSLSSYVMGWFRQAAGKGLEYIGYINADGSPYYATWVNGRFTISKTPTTMDLKINSPTTEDTATYFCARVGPLGVDYFNIWGPGTLVTVSL
VL: DIVMTQTPASVEAAVGGTVTIKCQASQSINRYLTWYQQKPGQRPKLLIYYASTLESGVPSRFEGSGSGTDYTLTISDLESADAATYYCQSYYYISRTYAFGGGTEVVVKR
notes: as for B1
B5: KWAR23 huIgG1LALA (antibody, V domains shown)
VH: EVQLQQSGAELVKPGASVKLSCTASGFNIKDYYIHWVQQRTEQGLEWIGRIDPEDGETKYAPKFQDKATITADTSSNTAYLHLSSLTSEDTAVYYCARWGAYWGQGTLVTVSS
VL: QIVLTQSPAIMSASPGEKVTLTCSASSSVSSSYLYWYQQKPGSSPKLWIYSTSNLASGVPARFSGSGSGTSYSLTISSMEAEDAASYFCHQWSSYPRTFGAGTKLELK

A value given as a limit tells only on which side of the number the result lay.

A word on the EC50: it is the concentration needed to bring the measured effect to its halfway point. One may read the Kd as the constant that tells how readily two partners part at equilibrium. Higher therefore signals weaker binding.

T2 sequence (Q5TFQ8 30-371 limits assumed): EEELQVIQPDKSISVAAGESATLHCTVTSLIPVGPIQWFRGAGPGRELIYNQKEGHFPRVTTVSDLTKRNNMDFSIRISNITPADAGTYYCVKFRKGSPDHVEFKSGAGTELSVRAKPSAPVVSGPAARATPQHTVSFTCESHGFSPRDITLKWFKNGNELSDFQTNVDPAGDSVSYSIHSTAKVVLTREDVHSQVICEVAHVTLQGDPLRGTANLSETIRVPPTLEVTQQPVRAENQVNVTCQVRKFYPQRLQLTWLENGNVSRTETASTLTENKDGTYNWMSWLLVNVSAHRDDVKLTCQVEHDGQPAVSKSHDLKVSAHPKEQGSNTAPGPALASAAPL
T1 sequence (P78324 other isoform, or with tags, fused parts or gaps limits assumed): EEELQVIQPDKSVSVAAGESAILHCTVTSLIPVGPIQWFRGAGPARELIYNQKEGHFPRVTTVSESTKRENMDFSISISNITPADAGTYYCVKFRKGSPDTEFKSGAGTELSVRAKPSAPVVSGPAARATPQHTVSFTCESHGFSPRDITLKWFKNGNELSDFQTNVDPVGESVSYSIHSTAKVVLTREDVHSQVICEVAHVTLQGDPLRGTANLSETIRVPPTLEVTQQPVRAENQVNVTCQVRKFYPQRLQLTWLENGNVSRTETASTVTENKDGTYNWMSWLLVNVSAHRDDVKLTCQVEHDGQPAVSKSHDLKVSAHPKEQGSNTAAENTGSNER
Chain of human SIRPαBIT (huSIRPαBIT), protein antigen (human) (P78324 31-370): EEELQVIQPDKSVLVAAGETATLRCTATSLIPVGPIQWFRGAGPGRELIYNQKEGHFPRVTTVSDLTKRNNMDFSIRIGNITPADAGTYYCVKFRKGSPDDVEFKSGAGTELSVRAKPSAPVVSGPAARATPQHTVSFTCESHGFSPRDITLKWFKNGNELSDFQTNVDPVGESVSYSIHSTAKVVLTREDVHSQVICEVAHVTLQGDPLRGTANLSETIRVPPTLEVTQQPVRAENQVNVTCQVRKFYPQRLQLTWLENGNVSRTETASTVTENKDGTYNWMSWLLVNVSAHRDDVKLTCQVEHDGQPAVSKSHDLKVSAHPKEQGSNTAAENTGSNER
T3 sequence (Q9P1W8 29-360 limits assumed): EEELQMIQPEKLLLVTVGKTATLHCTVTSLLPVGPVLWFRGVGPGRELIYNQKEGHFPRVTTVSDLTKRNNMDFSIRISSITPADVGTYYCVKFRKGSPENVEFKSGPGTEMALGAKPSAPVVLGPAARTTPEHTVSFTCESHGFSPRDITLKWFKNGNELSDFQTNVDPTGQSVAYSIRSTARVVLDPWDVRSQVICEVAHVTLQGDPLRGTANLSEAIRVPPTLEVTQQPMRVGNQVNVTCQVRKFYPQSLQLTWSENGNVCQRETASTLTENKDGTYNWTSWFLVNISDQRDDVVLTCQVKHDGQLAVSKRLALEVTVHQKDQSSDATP
Chain of human SIRPβ1v1 (huSIRPβ1v1) (human) (O00241 30-371): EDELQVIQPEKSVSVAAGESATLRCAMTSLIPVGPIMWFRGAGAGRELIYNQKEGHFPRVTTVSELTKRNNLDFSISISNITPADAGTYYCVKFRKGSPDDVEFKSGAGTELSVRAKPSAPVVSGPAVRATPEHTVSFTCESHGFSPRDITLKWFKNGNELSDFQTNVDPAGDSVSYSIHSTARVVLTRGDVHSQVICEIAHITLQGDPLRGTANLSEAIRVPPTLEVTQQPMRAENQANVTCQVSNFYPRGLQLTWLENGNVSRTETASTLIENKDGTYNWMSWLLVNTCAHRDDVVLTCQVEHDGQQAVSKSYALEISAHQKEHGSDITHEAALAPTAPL
Chain of human SIRPαBIT expressed on cells (human) (P78324 31-504): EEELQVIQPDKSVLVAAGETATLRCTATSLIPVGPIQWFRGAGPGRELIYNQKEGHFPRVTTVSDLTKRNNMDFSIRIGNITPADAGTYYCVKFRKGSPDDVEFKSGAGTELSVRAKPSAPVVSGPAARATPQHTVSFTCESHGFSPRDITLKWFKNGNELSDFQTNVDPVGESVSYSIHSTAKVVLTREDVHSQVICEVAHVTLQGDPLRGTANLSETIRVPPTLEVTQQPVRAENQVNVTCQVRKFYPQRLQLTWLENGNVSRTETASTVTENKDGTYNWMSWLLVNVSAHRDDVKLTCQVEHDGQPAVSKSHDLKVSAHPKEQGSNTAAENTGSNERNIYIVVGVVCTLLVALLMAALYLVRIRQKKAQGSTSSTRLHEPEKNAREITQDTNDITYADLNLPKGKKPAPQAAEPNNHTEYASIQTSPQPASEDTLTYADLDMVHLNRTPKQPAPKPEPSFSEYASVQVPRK

The first test addresses human SIRPαBIT (huSIRPαBIT), protein antigen (human) (UniProt P78324). Briefly: ELISA, antigen coated. On the technique in general: ELISA stands for enzyme-linked immunosorbent assay.
B1 registered an EC50 of 0.02 µg/mL.

Molecule B2 came in with an EC50 of 0.005 µg/mL.

B3: the EC50 amounted to 0.027 µg/mL.

On to B4, for which the EC50 stood at 0.021 µg/mL.

The next test concerns the target human SIRPβ1v1 (huSIRPβ1v1) (human) (UniProt O00241). Briefly: ELISA, antigen coated.
In turn, B1 came in with an EC50 of more than 100 µg/mL.

B2: the EC50 worked out at 0.008 µg/mL.

For the molecule B3, the EC50 is more than 100 µg/mL.

Consider B4, for which the EC50 turned out to be 3.52 µg/mL.

Another test concerns the target human SIRPαBIT expressed on cells (human) (UniProt P78324). Briefly: flow cytometry, U937 cells. Background: In flow cytometry, cells or beads pass a laser one at a time.
B1 registered an EC50 of 0.12 µg/mL.

Molecule B2 showed an EC50 of 0.19 µg/mL.

B3 returned an EC50 of 0.14 µg/mL.

In turn, B5 came in with an EC50 of 0.09 µg/mL.

In turn, B4 had an EC50 of 0.16 µg/mL.

For the next test the target is unchanged. Briefly: flow cytometry, ExpiCHO-S cells.
B1 registered a concentration giving a half-maximal response (EC50) of 0.18 µg/mL.

B3: the EC50 was determined as 0.27 µg/mL.

As to B4, the EC50 worked out at 0.22 µg/mL.

The next test has as its target T1, human SIRPα1 (huSIRPα1), protein antigen (human, UniProt P78324 31-370, limits assumed, biotinylated in the SPR assay).
T1 construct: Coated on the plate in ELISA, biotinylated and captured in SPR; also called v2
Briefly: ELISA, antigen coated. How it is done:
(§1) ELISA assay: Solutions of huSIRPα₁, huSIRPαBIT, huSIRPβ₁ᵥ₁, huSIRPβ₁ᵥ₂, huSIRPγ and cySIRPα in phosphate buffered saline (PBS) were each added to a multiple well black polystyrene plate for ELISA and allowed to adhere for 1 h at RT. Unbound protein was removed with three washing steps using standard washing buffer. Subsequently, blocking buffer was added to the wells. After 1 h incubation at RT, the wells were washed three times with standard washing buffer. The antibodies in buffer at various concentrations were added to the wells and incubated at RT for 1 h. Unbound antibodies were removed with three washing steps using standard washing buffer. Goat anti human IgG (Fab′)₂:horse radish peroxidase (HRP) in buffer was added to the wells and incubated at RT for 1 h. 3,3′,5,5′-Tetramethylbenzidine (TMB) was added and after sufficient colour development HCl was added. Absorbance was read at 450 nm/620 nm.
B1: the EC50 worked out at 0.019 µg/mL.

B2 had an EC50 of 0.007 µg/mL.

Regarding B3, the EC50 amounted to 0.033 µg/mL.

B4 registered an EC50 of 0.031 µg/mL.

Another test addresses T2, human SIRPβ1v2 (huSIRPβ1v2) (human, UniProt Q5TFQ8 30-371).
T2 construct: Coated on the plate in ELISA; Only the Ensembl protein number is printed; also called huSIRPß1v2
Briefly: ELISA, antigen coated. The method, then:
as §1
With B1, the response was half-maximal at 0.019 µg/mL (EC50).

The molecule B2 registered an EC50 of 0.006 µg/mL.

In turn, B3 had an EC50 of 0.028 µg/mL.

B4 yielded an EC50 of 0.11 µg/mL.

The next test addresses T3, human SIRPγ (huSIRPγ) (human, UniProt Q9P1W8 29-360, limits assumed, biotinylated in the SPR assay).
T3 construct: Coated on the plate in ELISA, biotinylated and captured in SPR
Briefly: ELISA, antigen coated. How it is done: as §1
On to B1, for which the EC50 was more than 100 µg/mL.

Molecule B2 gave an EC50 of 0.006 µg/mL.

With B3, the EC50 was more than 100 µg/mL.

In turn, B4 displayed a concentration giving a half-maximal response (EC50) of more than 100 µg/mL.

The target in a further test is T4, cynomolgus SIRPα (cySIRPα), protein antigen (cynomolgus monkey, UniProt A0A2K5VYQ9 31-369).
T4 construct: Coated on the plate in ELISA
T4 sequence: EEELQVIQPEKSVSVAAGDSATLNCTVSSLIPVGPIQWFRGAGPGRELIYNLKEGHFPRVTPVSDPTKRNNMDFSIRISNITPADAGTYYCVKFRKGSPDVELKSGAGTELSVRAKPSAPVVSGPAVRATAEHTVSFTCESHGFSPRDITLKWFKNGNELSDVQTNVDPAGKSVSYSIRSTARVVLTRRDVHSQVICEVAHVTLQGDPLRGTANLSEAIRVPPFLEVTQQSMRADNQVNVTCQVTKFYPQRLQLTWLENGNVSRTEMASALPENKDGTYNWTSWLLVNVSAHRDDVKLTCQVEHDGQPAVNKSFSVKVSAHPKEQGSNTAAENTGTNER
Briefly: ELISA, antigen coated. The method, then: as §1
With B1, the EC50 is 0.026 µg/mL.

B2: the EC50 is 0.005 µg/mL.

Regarding B3, a half-maximal response (EC50) required 0.038 µg/mL.

Regarding B4, the EC50 came out at 0.123 µg/mL.

Another test concerns the target human SIRPαBIT (huSIRPαBIT), protein antigen (human) (UniProt P78324). Briefly: SPR, biotinylated antigen captured, 25 C. Background: SPR reads the build-up and loss of mass on a sensor chip optically.
B2 came in with a Kd of 0.015 nM.

B5 returned an equilibrium dissociation constant (Kd) of less than 0.01 nM.

The target in another test is T5, human SIRPα1 expressed on cells (human, UniProt P78324 31-504).
T5 construct: whole, on cells; also called ExpiCHO-S (huSIRPα1); CHO cells expressing huSIRPα1
T5 sequence (P78324 other isoform, or with tags, fused parts or gaps limits assumed): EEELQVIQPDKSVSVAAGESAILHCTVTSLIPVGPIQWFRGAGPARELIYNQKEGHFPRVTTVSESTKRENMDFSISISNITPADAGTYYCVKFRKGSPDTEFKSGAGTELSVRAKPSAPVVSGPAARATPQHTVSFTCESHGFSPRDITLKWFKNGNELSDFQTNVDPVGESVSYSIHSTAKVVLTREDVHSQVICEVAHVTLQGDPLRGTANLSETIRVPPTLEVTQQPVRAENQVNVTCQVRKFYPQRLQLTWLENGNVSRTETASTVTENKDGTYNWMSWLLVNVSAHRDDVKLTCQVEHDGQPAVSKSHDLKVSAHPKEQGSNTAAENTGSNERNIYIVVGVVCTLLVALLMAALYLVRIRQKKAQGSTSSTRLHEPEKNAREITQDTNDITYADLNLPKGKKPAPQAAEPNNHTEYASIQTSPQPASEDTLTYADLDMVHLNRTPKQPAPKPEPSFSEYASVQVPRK
Briefly: flow cytometry, ExpiCHO-S cells. The source says:
(§2) Flow Cytometry: U937 cells endogenously expressing human SIRPαBIT antigen and cells derived from a non-engineered subclone that has been screened and isolated from CHO-S Chinese hamster ovary cells (ExpiCHO-S) cells expressing human SIRPα₁, SIRPαBIT or cySIRPα antigen (100,000 cells/well in a 96-well plate) were washed three times with ice-cold FACS buffer (1×PBS (LONZA) containing 0.2% v/w BSA (Sigma-Aldrich, St. Louis, Mo.) and 0.02% v/w NaN₃ (Sigma-Aldrich), followed by the addition of a concentration range of each primary mAb (50 μL/well) diluted in ice-cold FACS buffer. After an incubation time of 30 min at 4° C., the cells were washed three times with ice-cold FACS buffer and 50 μL/well secondary mAb (AffiniPure F(ab′)₂ fragment Goat-anti-human IgG-APC, 1:6,000 dilution, Jackson Immuno Research) was added. After 30 min at 4° C., cells were washed twice and resuspended in 150 μL FACS buffer. Fluorescence intensities were determined by flow cytometry (BD FACSVerse, Franklin Lakes, N.J.) and indicated as the median fluorescence intensity (MFI-Median) for U937 cells and ExpiCHO-S cells. Curves were fitted by nonlinear regression using the sigmoidal dose-response equation with variable slope (four parameters) in GraphPad Prism (version 7.02 for Windows, GraphPad, San Diego, Calif.). EC₅₀ values were calculated as the concentration in μg/mL that gives a response half way between bottom and top of the curve, when using a 4-parameter logistic fit.
Regarding B1, the EC50 is 0.22 µg/mL.

As to B3, the response was half-maximal at 0.19 µg/mL (EC50).

Molecule B4 returned an EC50 of 0.27 µg/mL.

The target of the next test is T6, cynomolgus SIRPα expressed on cells (cynomolgus monkey, UniProt A0A2K5VYQ9 31-507).
T6 construct: whole, on cells; also called ExpiCHO-S (cySIRPα)
T6 sequence: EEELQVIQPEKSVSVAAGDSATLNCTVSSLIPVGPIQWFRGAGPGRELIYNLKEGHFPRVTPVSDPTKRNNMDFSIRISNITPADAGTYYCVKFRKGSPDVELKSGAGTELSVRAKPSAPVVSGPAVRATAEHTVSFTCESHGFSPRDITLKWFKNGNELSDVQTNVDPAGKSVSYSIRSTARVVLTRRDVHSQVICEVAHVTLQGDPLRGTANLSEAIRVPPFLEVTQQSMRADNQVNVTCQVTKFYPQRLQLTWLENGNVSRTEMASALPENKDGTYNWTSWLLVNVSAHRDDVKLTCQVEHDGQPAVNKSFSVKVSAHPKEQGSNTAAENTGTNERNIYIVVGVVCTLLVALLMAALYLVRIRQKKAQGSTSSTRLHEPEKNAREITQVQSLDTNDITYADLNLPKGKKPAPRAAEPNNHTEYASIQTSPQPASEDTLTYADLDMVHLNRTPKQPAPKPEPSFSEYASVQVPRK
Briefly: flow cytometry, ExpiCHO-S cells.
Source text: as §2
In turn, B1 yielded a concentration for a half-maximal effect (EC50) of 0.15 µg/mL.

Consider B3, for which the EC50 was 0.16 µg/mL.

Turning to B4, the EC50 was found to be 0.26 µg/mL.

A further test deals with T1, human SIRPα1 (huSIRPα1), protein antigen. Briefly: SPR, biotinylated antigen captured, 25 C. The method, then: (§3) Surface Plasmon Resonance (SPR) assay: Affinity analysis was performed by single cycle kinetics analysis on a Surface Plasmon Resonance apparatus (Biacore T200 system, GE Life Sciences) at 25° C. Biotinylated SIRP antigens were captured on the surface of a chip suitable for biotinylated molecules (Sensor Chip CAP, GE Life Sciences) by injecting 5 μg/ml of the SIRP antigen in running buffer (10 mM HEPES buffer at pH 7.4 with 150 mM NaCl, 3 mM EDTA and 0.005% v/v polyoxyethylene (20) sorbitan monolaurate (Surfactant P20) for 60 sec at 10 μL/min after injection of a streptavidin conjugate (20× diluted biotin CAPture reagent, GE Life Sciences) for 60 sec at 10 μl/min. Baseline stabilization was set at 1 min after which five increasing concentrations of an anti-SIRP antibody in running buffer (10 mM HEPES buffer at pH 7.4 with 150 mM NaCl, 3 mM EDTA and 0.005% v/v polyoxyethylene (20) sorbitan monolaurate) were injected. For each step an association time of 150 sec was used, followed by a dissociation time of 1200 sec at the highest concentration only, all at a flow rate of 30 μL/min. Regeneration was performed with 6 M guanidine-HCl, 0.25 M NaOH solution (60 sec with flow rate of 30 μL/min). Double blank subtraction was performed on the observed sensorgrams using a non anti-SIRP (blank) immobilized reference flow channel and running buffer injection. Sensorgrams were fitted with a 1:1 Langmuir model for all tested anti-SIRP antibodies. The kinetic parameters (kₐ, kd and KD) were calculated using the Biacore T200 evaluation software (v3.1).
The molecule B2 returned a Kd of 0.087 nM.

B5 displayed a Kd of 0.011 nM.

In the next test the target is T3, human SIRPγ (huSIRPγ). Briefly: SPR, biotinylated antigen captured, 25 C. The method, then:
as §3
B2 returned an equilibrium dissociation constant (Kd) of 0.016 nM.

With B5, the Kd is less than 0.01 nM.
